The series addresses T1, CasR (Rv1776c) (UniProt O33179 1-186).
T1 sequence: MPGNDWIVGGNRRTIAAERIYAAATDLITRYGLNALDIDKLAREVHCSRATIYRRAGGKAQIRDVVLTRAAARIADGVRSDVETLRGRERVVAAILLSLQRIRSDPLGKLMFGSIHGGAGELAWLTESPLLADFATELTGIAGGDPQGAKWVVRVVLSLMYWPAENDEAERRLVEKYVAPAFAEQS
The series can be described thus: EMSA; 0-2 uM protein. The note with it: protein: recombinant, tags: N-terminal His (pET28a), chain copies: 2.

B1: csm6p1 (dsDNA)
DNA 1: CGATAGTTGGCCCAATTGTCTATCTGGGC
DNA 2: GCCCAGATAGACAATTGGGCCAACTATCG
On to B1, for which the binding result was “binds”.

B2: casRp1 (dsDNA)
DNA 1: AATAAGTAAGGCTTGTGTCTCACTATGA
DNA 2: TCATAGTGAGACACAAGCCTTACTTATT
Turning to B2, under “blunt”, the binding result was “binds”.

These data come from paper PMC9953421, “Regulation of CRISPR-Associated Genes by Rv1776c (CasR) in Mycobacterium tuberculosis”.
